Measurements as given in patent US11833164B2, “Methods of treating Fabry disease in patients having a mutation in the GLA gene” (Amicus Therapeutics, Inc., priority 2019, dated 2023).
Numbering of substitutions follows the chain as printed. Names and notes keep the numbering of the source.

B1: Y123N (protein)
chain: MQLRNPELHLGCALALRFLALVSWDIPGARALDNGLARTPTMGWLHWERFMCNLDCQEEPDSCISEKLFMEMAELMVSEGWKDAGYEYLCIDDCWMAPQRDSEGRLQADPQRFPHGIRQLANNVHSKGLKLGIYADVGNKTCAGFPGSFGYYDIDAQTFADWGVDLLKFDGCYCDSLENLADGYKHMSLALNRTGRSIVYSCEWPLYMWPFQKPNYTEIRQYCNHWRNFADIDDSWKSIKSILDWTSFNQERIVDVAGPGGWNDPDMLVIGNFGLSWNQQVTQMALWAIMAAPLFMSNDLRHISPQAKALLQDKDVIAINQDPLGKQGYQLRQGDNFEVWERPLSGLAWAVAMINRQEIGGPRSYTIAVASLGKGVACNPACFITQLLPVKRKLGFYEWTSRLRSHINPTGTVLLQLENTMQMSLKDLL
B2: Y123S (protein)
chain: B1 chain with N123S
B3: V124I (protein)
chain: B1 chain with N123Y, V124I
B4: H125D (protein)
chain: B1 chain with N123Y, H125D
B5: H125N (protein)
chain: B1 chain with N123Y, H125N
B6: H125R (protein)
chain: B1 chain with N123Y, H125R
B7: S126C (protein)
chain: B1 chain with N123Y, S126C
B8: S126I (protein)
chain: B1 chain with N123Y, S126I
B9: K127E (protein)
chain: B1 chain with N123Y, K127E
B10: G128A (protein)
chain: B1 chain with N123Y, G128A
B11: L129V (protein)
chain: B1 chain with N123Y, L129V
B12: K130M (protein)
chain: B1 chain with N123Y, K130M
B13: K130N (protein)
chain: B1 chain with N123Y, K130N
B14: K130Q (protein)
chain: B1 chain with N123Y, K130Q
B15: L131V (protein)
chain: B1 chain with N123Y, L131V
B16: I133L (protein)
chain: B1 chain with N123Y, I133L
B17: I133T (protein)
chain: B1 chain with N123Y, I133T
B18: I133V (protein)
chain: B1 chain with N123Y, I133V
B19: A135E (protein)
chain: B1 chain with N123Y, A135E
B20: A135G (protein)
chain: B1 chain with N123Y, A135G
B21: A135S (protein)
chain: B1 chain with N123Y, A135S

test system: mutant form of α-Gal A expressed in HEK-293 cells; assay: HEK assay (GLP HEK / Migalastat Amenability Assay): α-Gal A activity in lysates of transiently transfected HEK-293 cells incubated with or without 10 μM migalastat; format: cell-based, human; conditions: 10 μM migalastat versus baseline
Procedure: Such mutations or variants are also referred to herein as “HEK assay amenable” mutations or variants.
The α-Gal A activity is expressed as the nmoles of free 4-MU released per milligram of protein per hour (nmol/mg/hr).
In Table 7, values for the mean±standard error of the mean (SEM) were calculated. nmol/mg/hr indicates “nmoles of free 4-MU released per mg of protein per hour”. WT indicates “wild-type”. NC indicates “not calculable”. N/A indicates “not applicable”.

Molecule	Absolute increase (% WT)
B1	19.7 % WT
B2	19.3 % WT
B3	30.6 % WT
B4	6.5 % WT
B5	14.9 % WT
B6	23.0 % WT
B7	7.5 % WT
B8	16.0 % WT
B9	6.4 % WT
B10	5.1 % WT
B11	16.4 % WT
B12	10.9 % WT
B13	10.1 % WT
B14	12.0 % WT
B15	12.7 % WT
B16	17.5 % WT
B17	15.0 % WT
B18	21.9 % WT
B19	7.4 % WT
B20	16.1 % WT
B21	12.2 % WT

same assay, conditions: 10 μM migalastat α-Gal A activity relative to baseline

Molecule	Relative increase
B1	1.5
B2	1.5
B3	1.4
B4	3.3
B5	1.4
B6	1.6
B7	1.4
B8	1.2
B9	1.2
B10	1.2
B11	1.5
B12	1.3
B13	1.5
B14	1.4
B15	1.3
B16	1.3
B17	2.4
B18	1.2
B19	1.3
B20	1.2
B21	1.3

same assay, conditions: 10 μM migalastat, 5 days; percentage of baseline wild-type α-Gal A activity; mean ± SEM

Molecule	10 μM migalastat α-Gal A activity (% WT)
B1	60.6 ± 4.1 % WT
B2	61 ± 3.6 % WT
B3	111.3 ± 4.5 % WT
B4	8.8 ± 1.4 % WT
B5	48.4 ± 2.7 % WT
B6	59.1 ± 1.9 % WT
B7	24.5 ± 1.5 % WT
B8	85.9 ± 5.3 % WT
B9	32.2 ± 2.3 % WT
B10	25.9 ± 2.3 % WT
B11	48.1 ± 4.5 % WT
B12	41.4 ± 2.6 % WT
B13	31.5 ± 3 % WT
B14	47.8 ± 3.1 % WT
B15	53.2 ± 5.3 % WT
B16	78.2 ± 3.1 % WT
B17	25.8 ± 1.1 % WT
B18	118.1 ± 5.1 % WT
B19	32.5 ± 1.6 % WT
B20	90 ± 3.6 % WT
B21	57.9 ± 3.2 % WT

same assay, conditions: absence of migalastat; percentage of baseline wild-type α-Gal A activity; mean ± SEM

Molecule	Baseline α-Gal A activity (% WT)
B1	40.9 ± 3.2 % WT
B2	41.7 ± 2.1 % WT
B3	80.7 ± 2 % WT
B4	2.3 ± 0.2 % WT
B5	33.5 ± 1.8 % WT
B6	36 ± 1.2 % WT
B7	16.9 ± 1.1 % WT
B8	69.8 ± 5.1 % WT
B9	25.8 ± 1.1 % WT
B10	20.8 ± 2 % WT
B11	31.8 ± 3.3 % WT
B12	30.5 ± 2.1 % WT
B13	21.5 ± 1.9 % WT
B14	35.8 ± 2.6 % WT
B15	40.5 ± 2.8 % WT
B16	60.7 ± 2.7 % WT
B17	10.8 ± 1 % WT
B18	96.2 ± 3.7 % WT
B19	25.1 ± 1.5 % WT
B20	73.9 ± 3.8 % WT
B21	45.6 ± 2.9 % WT

same assay, conditions: lysates of HEK-293 cells transfected with the mutant form, incubated 5 days in the absence of migalastat; mean ± SEM

Molecule	Baseline α-Gal A activity
B1	13817 ± 816 nmol/mg/h
B2	14556 ± 986 nmol/mg/h
B3	32074 ± 1858 nmol/mg/h
B4	995 ± 106 nmol/mg/h
B5	14162 ± 994 nmol/mg/h
B6	14738 ± 699 nmol/mg/h
B7	7046 ± 488 nmol/mg/h
B8	28685 ± 1923 nmol/mg/h
B9	8968 ± 519 nmol/mg/h
B10	8484 ± 872 nmol/mg/h
B11	12614 ± 1265 nmol/mg/h
B12	12335 ± 890 nmol/mg/h
B13	8597 ± 678 nmol/mg/h
B14	11880 ± 450 nmol/mg/h
B15	18644 ± 1664 nmol/mg/h
B16	24431 ± 1181 nmol/mg/h
B17	4362 ± 397 nmol/mg/h
B18	38738 ± 1624 nmol/mg/h
B19	10143 ± 752 nmol/mg/h
B20	29959 ± 2193 nmol/mg/h
B21	16777 ± 897 nmol/mg/h

same assay, conditions: lysates of HEK-293 cells transfected with the mutant form, incubated 5 days with 10 μM migalastat; mean ± SEM

Molecule	10 μM migalastat α-Gal A activity
B1	20466 ± 846 nmol/mg/h
B2	21255 ± 1484 nmol/mg/h
B3	43288 ± 2179 nmol/mg/h
B4	3282 ± 375 nmol/mg/h
B5	20228 ± 1240 nmol/mg/h
B6	24004 ± 987 nmol/mg/h
B7	10050 ± 554 nmol/mg/h
B8	35340 ± 2027 nmol/mg/h
B9	11003 ± 768 nmol/mg/h
B10	10204 ± 703 nmol/mg/h
B11	19488 ± 1603 nmol/mg/h
B12	16496 ± 921 nmol/mg/h
B13	12595 ± 989 nmol/mg/h
B14	16001 ± 701 nmol/mg/h
B15	24913 ± 3151 nmol/mg/h
B16	31550 ± 1420 nmol/mg/h
B17	10255 ± 335 nmol/mg/h
B18	47299 ± 1885 nmol/mg/h
B19	12954 ± 678 nmol/mg/h
B20	36552 ± 2309 nmol/mg/h
B21	21383 ± 1125 nmol/mg/h
